Laboratory results taken from patent CN114685666A (ZHEJIANG NANOMETER ANTIBODY TECH CENTER LIMITED COMPANY, dated 2022).

Experiments:
[1] = target: MSLN expressed on HEK293T cells (HEK293T MSLN细胞) (UniProt Q13421); test: flow cytometry on HEK293T cells expressing MSLN, anti-human IgG PE detection
[2] = target: T1, 人MSLN.His抗原 (MSLN.His蛋白, 义翘神州科技股份有限公司, MSN-H5223) (human, UniProt Q13421 296-580, limits assumed); test: SPR (Biacore), antibody captured on protein A chip, MSLN.His as analyte at 5 concentrations
T1 construct: Bought protein; not shown: His tag
T1 sequence (Q13421 other isoform, or with tags, fused parts or gaps limits assumed): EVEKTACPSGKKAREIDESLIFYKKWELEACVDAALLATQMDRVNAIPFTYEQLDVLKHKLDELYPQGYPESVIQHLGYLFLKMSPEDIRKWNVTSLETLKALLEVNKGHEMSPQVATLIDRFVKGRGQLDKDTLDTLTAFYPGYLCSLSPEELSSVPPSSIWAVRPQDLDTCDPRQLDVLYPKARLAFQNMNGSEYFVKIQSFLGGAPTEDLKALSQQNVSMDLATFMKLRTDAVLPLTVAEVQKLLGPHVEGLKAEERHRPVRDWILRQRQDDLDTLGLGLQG

B1: M2339 (重链抗体, 纳米抗体构建到pCDNA3.4-IgG4载体上表达) (Fc fusion)
heavy: QLQLGASGGGLVQPGGSLRLSCALSGFTLRELDEFAIGWFRQAPGKEREGVSCISGTGGITHYADSVKGRFTISRDIAKTTVYLQMNSLNSEDTAVYYCAADERCTDRLIRPPTYWGQGTQVTVSS
notes: also called 候选抗体; not shown: IgG4 constant part from the vector pCDNA3.4-IgG4
[1]
  EC50: 3.68 nM
[2]
  Kd: 0.264 nM
  koff: 1.82e-05 s⁻¹
  kon: 69000 M⁻¹ s⁻¹
